Data on seven molecules can be found in PMC10640585, “The E3 ligase Riplet promotes RIG-I signaling independent of RIG-I oligomerization” (Nature Communications, 2023).

The target of data set [1] is T1, RIG-I;Riplet (human;human, UniProt O95786;Q8IUD6 1-925;1-432, |).
T1 sequence 1: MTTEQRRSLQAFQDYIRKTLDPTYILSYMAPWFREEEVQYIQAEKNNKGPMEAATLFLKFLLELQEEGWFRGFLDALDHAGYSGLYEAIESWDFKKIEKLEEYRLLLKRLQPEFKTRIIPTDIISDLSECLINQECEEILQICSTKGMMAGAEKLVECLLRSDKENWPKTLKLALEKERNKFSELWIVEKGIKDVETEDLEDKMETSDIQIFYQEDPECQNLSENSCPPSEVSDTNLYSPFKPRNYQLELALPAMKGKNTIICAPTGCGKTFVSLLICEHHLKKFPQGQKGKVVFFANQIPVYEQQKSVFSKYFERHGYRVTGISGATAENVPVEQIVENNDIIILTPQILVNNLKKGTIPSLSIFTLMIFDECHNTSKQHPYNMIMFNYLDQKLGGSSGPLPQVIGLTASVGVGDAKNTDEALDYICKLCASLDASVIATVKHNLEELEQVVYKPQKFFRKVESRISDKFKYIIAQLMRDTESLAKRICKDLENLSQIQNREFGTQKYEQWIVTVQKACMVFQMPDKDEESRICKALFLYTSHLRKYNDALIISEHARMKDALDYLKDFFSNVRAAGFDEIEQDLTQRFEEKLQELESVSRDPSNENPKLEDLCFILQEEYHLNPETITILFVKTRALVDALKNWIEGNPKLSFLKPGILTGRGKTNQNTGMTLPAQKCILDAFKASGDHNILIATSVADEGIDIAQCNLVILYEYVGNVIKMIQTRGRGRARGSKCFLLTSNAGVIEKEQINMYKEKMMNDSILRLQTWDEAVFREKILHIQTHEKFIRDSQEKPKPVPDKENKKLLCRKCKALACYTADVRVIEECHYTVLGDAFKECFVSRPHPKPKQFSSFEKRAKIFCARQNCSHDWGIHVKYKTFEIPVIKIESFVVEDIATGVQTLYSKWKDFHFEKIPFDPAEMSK
T1 sequence 2: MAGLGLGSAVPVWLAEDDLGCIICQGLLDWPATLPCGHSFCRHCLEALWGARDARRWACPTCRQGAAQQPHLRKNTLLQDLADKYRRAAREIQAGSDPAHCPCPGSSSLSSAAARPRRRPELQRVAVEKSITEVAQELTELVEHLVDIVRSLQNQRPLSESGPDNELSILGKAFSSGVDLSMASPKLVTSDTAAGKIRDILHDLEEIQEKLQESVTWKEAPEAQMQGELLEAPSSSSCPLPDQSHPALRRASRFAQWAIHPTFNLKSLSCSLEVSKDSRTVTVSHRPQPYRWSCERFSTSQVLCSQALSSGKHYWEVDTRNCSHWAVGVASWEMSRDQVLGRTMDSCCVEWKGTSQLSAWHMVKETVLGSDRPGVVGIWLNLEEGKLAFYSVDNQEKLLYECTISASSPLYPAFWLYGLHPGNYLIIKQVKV
The experiment in a line: cryo-EM; end-end complex, 2 RIG-I:1 RNA:1 Riplet dimer, 3.2 A; EMSA: RNA + RIG-I 30 min RT, then Riplet 30 min RT, 6% native PAGE, GelRed; protein storage buffer 25 mM HEPES pH 7.4, 200 mM NaCl, 5% glycerol, 5 mM BME (bindi). To be noted: protein: recombinant;recombinant, tags: N-terminal 6xHis-SUMO, removed by ULP1;N-terminal 6xHis-SUMO, chain copies: 2;2, blunt. (In general: A gel shift assay detects complexes by their altered migration in electrophoresis.)

Data set [2] concerns the target T2, biotinylated Avi-tagged RIG-I (Retinoic acid inducible gene-I) (human, UniProt O95786 1-925, biotin on the Avi tag (by BirA)).
T2 construct: RIG-I, human, full-length protein; Used alone (apo), pre-incubated with the RNA p3SLR14 (one RIG-I per RNA) or with p3dsRNA24 (two RIG-I per RNA); also called Avi-RIG-I; Apo-RIG-I; source: E. coli Rosetta 2(DE3), purified (Ni-NTA, heparin, SEC), biotinylated by BirA, SEC; not shown: His6, N-terminal, cleaved; SUMO, N-terminal, cleaved
T2 sequence (looked up): T1 sequence 1
The experiment in a line: SPR; biotinylated apo-RIG-I (no RNA) immobilised on a streptavidin SADH chip; Riplet constructs as analyte in HBS-EP+, 50 µl/min, dissociation 180 s, OneStep mode, 1:1 model. To be noted: both partners purified. In general terms: Surface plasmon resonance follows binding to a sensor surface in real time, without labels.

The target of data set [3] is T2, biotinylated Avi-tagged RIG-I (Retinoic …). As to the kind of experiment: SPR; biotinylated RIG-I pre-incubated with p3dsRNA24 (2.4:1, 4 °C overnight; two RIG-I per RNA) immobilised on a streptavidin SADH chip; Riplet constructs as analyte in HBS-EP+, 50 µl/min, dissociation 180 s, OneStep mode, 1:1 model. To be noted: both partners purified.
Data set [4] has the same target. The experiment in a line: SPR; biotinylated RIG-I pre-incubated with p3SLR14 (1:1.5, 4 °C overnight) immobilised on a streptavidin SADH chip; Riplet constructs as analyte in HBS-EP+, 50 µl/min, dissociation 180 s, OneStep mode, 1:1 model. To be noted: both partners purified.
The target of data set [5] is T3, biotinylated Avi-tagged RIG-I (human, UniProt O95786 1-925, biotin on the Avi tag (by BirA)).
T3 construct: RIG-I (Retinoic acid inducible gene-I), human, full-length; Immobilised on the SPR chip as apo protein or pre-incubated with p3SLR14 (1:1.5) or p3dsRNA24 (2.4:1; two RIG-I on one RNA); also called Avi-RIG-I; biotinylated RIG-I; source: E. coli Rosetta 2(DE3), purified (Ni-NTA, ULP1, heparin, size exclusion), biotinylated by BirA, size exclusion; not shown: 6xHis, N-terminal, cleaved; SUMO, …
T3 sequence (looked up): T1 sequence 1
As to the kind of experiment: SPR; biotinylated RIG-I pre-incubated with p3SLR14 (1:1.5, 4 °C overnight) immobilised on streptavidin SADH chip; Riplet constructs 0.125-10 µM in HBS-EP+, 50 µl/min, dissociation 180 s, OneStep mode, 1:1 model. To be noted: both partners purified.

Data set [6] concerns the target T3, biotinylated Avi-tagged RIG-I. As to the kind of experiment: SPR; biotinylated RIG-I pre-incubated with p3dsRNA24 (2.4:1, 4 °C overnight; two RIG-I on one RNA) immobilised on streptavidin SADH chip; Riplet constructs 0.125-10 µM in HBS-EP+, 50 µl/min, dissociation 180 s, OneStep mode, 1:1 model. To be noted: both partners purified.
Data set [7] shares this target. The experiment in a line: SPR; apo biotinylated RIG-I immobilised on streptavidin SADH chip; Riplet constructs 0.125-10 µM in HBS-EP+, 50 µl/min, dissociation 180 s, OneStep mode, 1:1 model. To be noted: both partners purified.

B1: p3dsRNA24 (dsRNA)
RNA 1: GGACGUACGUUUCGCGACUGUAGA
RNA 2: UCUACAGUCGCGAAACGUACGUCC
modifications: 5'-triphosphate on both strands
In the case of B1, in data set [1], the binding result was “binds”.

B2: Riplet-ΔRING (94-432) (domain or fragment, human, UniProt Q8IUD6 94-432, looked up)
chain: AGSDPAHCPCPGSSSLSSAAARPRRRPELQRVAVEKSITEVAQELTELVEHLVDIVRSLQNQRPLSESGPDNELSILGKAFSSGVDLSMASPKLVTSDTAAGKIRDILHDLEEIQEKLQESVTWKEAPEAQMQGELLEAPSSSSCPLPDQSHPALRRASRFAQWAIHPTFNLKSLSCSLEVSKDSRTVTVSHRPQPYRWSCERFSTSQVLCSQALSSGKHYWEVDTRNCSHWAVGVASWEMSRDQVLGRTMDSCCVEWKGTSQLSAWHMVKETVLGSDRPGVVGIWLNLEEGKLAFYSVDNQEKLLYECTISASSPLYPAFWLYGLHPGNYLIIKQVKV
notes: Riplet, human, residues 94-432 (CC and PrySpry domains, RING deleted); source: E. coli Rosetta 2(DE3), purified (Ni-NTA, SEC); not shown: His6, N-terminal, cleaved; SUMO, N-terminal, cleaved
In data set [2], B2 gave a Kd of 700 nM, a koff of 0.073 s⁻¹ and a kon of 110000 M⁻¹ s⁻¹. Moreover, in data set [3], the koff was determined as 0.0085 s⁻¹ and the kon worked out at 810000 M⁻¹ s⁻¹. In data set [4], this molecule registered a koff of 0.067 s⁻¹ and a kon of 54000 M⁻¹ s⁻¹.

B3: Riplet-ΔRING (94-432) (domain or fragment, human, UniProt Q8IUD6 94-432, looked up)
chain: B2 chain
notes: Riplet, human, residues 94-432 (RING domain deleted; CC and PrySpry domains kept); pET-SUMO-Riplet-ΔRING(94-432); the PDB entries are of the full-length parent; source: E. coli Rosetta 2(DE3), purified (Ni-NTA, ULP1 digestion, size exclusion); not shown: 6xHis, N-terminal, cleaved; SUMO, N-terminal, cleaved
In the case of B3, the Kd was 700 to 1200 nM in data set [5] and 10 nM in data set [6].

B4: Riplet full length (RING finger protein leading to RIG-I activation) (enzyme, human, UniProt Q8IUD6 1-432, looked up)
chain: T1 sequence 2
notes: Riplet, human, full length (1-432); also called Riplet-FL; Riplet WT; source: E. coli Rosetta 2(DE3), purified (Ni-NTA, SEC); not shown: His6, N-terminal, cleaved; SUMO, N-terminal, cleaved
As for B4, the values for the dissociation rate constant (koff) in data set [2], in data set [3] and in data set [4] were 0.0034 s⁻¹, 0.003 s⁻¹ and 0.013 s⁻¹, respectively. Besides, the association rate constant (kon) in data set [2] was found to be 4600 M⁻¹ s⁻¹; in data set [3] it was 450000 M⁻¹ s⁻¹; in data set [4] it was 19000 M⁻¹ s⁻¹.

B5: Riplet, full-length (Riplet-FL) (enzyme, human, UniProt Q8IUD6 1-432, looked up)
chain: T1 sequence 2
notes: Only the PrySpry domain is resolved in the cryo-EM maps; also called Riplet WT; E3 ligase Riplet; source: E. coli Rosetta 2(DE3), purified (Ni-NTA, ULP1 digestion, size exclusion); not shown: 6xHis, N-terminal, cleaved; SUMO, N-terminal, cleaved
Turning to B5, the equilibrium dissociation constant (Kd) in data set [7] stood at 700 nM; in data set [6], 6.6 nM.

B6: Riplet-PrySpry (249-432) (domain or fragment, human, UniProt Q8IUD6 249-432, looked up)
chain: RRASRFAQWAIHPTFNLKSLSCSLEVSKDSRTVTVSHRPQPYRWSCERFSTSQVLCSQALSSGKHYWEVDTRNCSHWAVGVASWEMSRDQVLGRTMDSCCVEWKGTSQLSAWHMVKETVLGSDRPGVVGIWLNLEEGKLAFYSVDNQEKLLYECTISASSPLYPAFWLYGLHPGNYLIIKQVKV
notes: Riplet, human, PrySpry domain, residues 249-432; also called Pspry; source: E. coli Rosetta 2(DE3), purified (Ni-NTA, SEC); not shown: His6, N-terminal, cleaved; SUMO, N-terminal, cleaved
In data set [2], B6 displayed a Kd of 3100 nM, a koff of 0.18 s⁻¹ and an association rate constant (kon) of 60000 M⁻¹ s⁻¹. In data set [3], this molecule had a koff of 0.19 s⁻¹ and a kon of 130000 M⁻¹ s⁻¹. Further, in data set [4], binding was put at a Kd of 3.6 µM, the koff is 0.18 s⁻¹ and the kon was determined as 51000 M⁻¹ s⁻¹.

B7: Riplet-PrySpry (249-432) (domain or fragment, human, UniProt Q8IUD6 249-432, looked up)
chain: B6 chain
notes: Riplet, human, PrySpry domain, residues 249-432 (RING and CC domains deleted); pET-SUMO-Riplet-PrySpry(249-432); the PDB entries are of the full-length parent; also called PrySpry domain alone; source: E. coli Rosetta 2(DE3), purified (Ni-NTA, ULP1 digestion, size exclusion); not shown: 6xHis, N-terminal, cleaved; SUMO, N-terminal, cleaved
Regarding B7, the Kd in data set [6] amounted to 1400 nM.

For orientation: Kd means the free concentration of one partner at which half of the binding sites on the other are occupied at equilibrium, for simple one-to-one binding. High values mean weaker binding, low ones tighter binding. What is called koff is the rate constant with which the complex falls apart. The term kon denotes the second-order rate constant of association. Read a low kon as slow association.
